Assay results as given in PMC4140749, “Identification of a Novel Hypocholesterolemic Protein, Major Royal Jelly Protein 1, Derived from Royal Jelly” (PLoS ONE, 2014).

Biological target: the molecule itself
Assay: SEC; 10-kDa cut-off royal jelly applied to HiLoad 26/60 Superdex 200 p.g.; 150 mM NaCl, 20 mM phosphate buffer pH 7.5; molecular weight calibrated with standard proteins; peak resolved by 15% SDS-PAGE

B1: major royal jelly protein 1 (natural protein, Apis mellifera, UniProt O18330 20-432, looked up)
chain: NILRGESLNKSLPILHEWKFFDYDFGSDERRQDAILSGEYDYKNNYPSDIDQWHDKIFVTMLRYNGVPSSLNVISKKVGDGGPLLQPYPDWSFAKYDDCSGIVSASKLAIDKCDRLWVLDSGLVNNTQPMCSPKLLTFDLTTSQLLKQVEIPHDVAVNATTGKGRLSSLAVQSLDCNTNSDTMVYIADEKGEGLIVYHNSDDSFHRLTSNTFDYDPKFTKMTIDGESYTAQDGISGMALSPMTNNLYYSPVASTSLYYVNTEQFRTSDYQQNDIHYEGVQNILDTQSSAKVVSKSGVLFFGLVGDSALGCWNEHRTLERHNIRTVAQSDETLQMIASMKIKEALPHVPIFDRYINREYILVLSNKMQKMVNNDFNFDDVNFRIMNANVNELILNTRCENPDNDRTPFKISIHL
notes: Major royal jelly protein 1 (MRJP1), Apis mellifera; 55 kDa on SDS-PAGE; Native protein isolated from royal jelly and identified by MALDI-TOF/MS; The introduction calls MRJPs glycoproteins; also called MRJP1; major RJ protein 1; source: purified from royal jelly (10-kDa cut-off RJ, size-exclusion chromatography on Superdex 200)
stoichiometry N: ~5
